Laboratory results taken from the domain aggregation screens of Martell et al. (2025).

Assay: soluble fraction after stress (log2 fold change); higher = more stays soluble; pooled small domains, quantitative proteomics
Details: stress: pH 4
In short: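 Pooled custom libraries of small protein domains were subjected to pH 4 and measured by high-throughput quantitative proteomics. The log2 fold change in soluble amount per domain is reported, higher values meaning more remained soluble. This is used as a measure of aggregation propensity.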

HMDDLATAYKAMGVDASISDKDLKRAYRKLMSQHHPDKMIAKGVPADMVAMATEKTQEIQAAYDLIERSR
soluble fraction (log2): 0.0752

HMNNIINEAQIKQWVEEFYLSVSPRPTRATMIALVHKKIKEETKDGEEGQTVSETLINNFYTALEKEHKRK
soluble fraction (log2): 0.22

HMNLESNQYVIDISDSQVINKDEFETILNQNKTKDIVIKSNNNVTFTFEKGSMIGAEGKDNYDFSSQVNY
soluble fraction (log2): -0.588

HMNDRRQDVFELLKSSERPVSAADLAHKFGVTRQVIVADIALLRASDIDIVSTNRGYILKANL
soluble fraction (log2): 0.0252

HMIIVMASSKKEDVAHVVHKIEELGYKAHVIVGVERTVVAAVGDERGKERLISLEALPHVEKVFPILK
soluble fraction (log2): -0.167

HMSFTDLILKSANAIDEMGGIWENGKQILGEKAIAIHEEIVDNGLNPDKDGFYKLANGQMIQYG
soluble fraction (log2): -0.85

HMYNMEELAGHTEKVYNSLPEELKLVIKLREIENMSYDEISLKTGMPIGTVRSRLHRAREILVDSLKDY
soluble fraction (log2): -0.491

HMGEVVRAPMPGNVLKMEVAQGQEVEEGDLLLVLEAMKMENDIVAPKGGIVIQLVVDKGMVVETDDPLVVI
soluble fraction (log2): -0.509

HMSKLIDQELINFFKNQIESKSFRYGVSIEDSYEEIKSNQIKFYGEQEDKLKAIDNAFIELKRERAGIR
soluble fraction (log2): -0.293

HMEVQVGKQVRAFRETLGMTVQQFAERTGFSAALLAQIENRMVSPSLGTLVKIANTFGTTVSSFIG
soluble fraction (log2): -0.38

HMHDWDITTAAKPEKIFELFSDIPVLETGLKHGTVTLLIDHEPYEVTTFRVDGNYTDGRHPDSVAFT
soluble fraction (log2): -0.366

HMIPRNLEDLVRENQIGLVILKIVEIIGEDNIRDLDPETIYFINRILNELNLKKIRNNILSEALPPR
soluble fraction (log2): -0.8

HMQEINLIGVTGNDLERSALVKLLDGEIIKLSVGDNLNGGRVVDISAVTLTYLKSGQSITLKLPK
soluble fraction (log2): 0.116

HMADGKWTLTDAGYTFTYSDGRKARGTWEDIDGEWYHFDRNGIMETGWKTVGNIRYHFNQDGSL
soluble fraction (log2): -0.363

HMPSIGKNILYYRKKRNMTIDELSKKSGVSKSMLSQVEQEKTNPTVVTVWKIARSLDVSINQLLQT
soluble fraction (log2): 0.136

HMADIGRMKELIDILNRASAVYYQGKDEIMSNFEYDKLYDELVSLEKESGLVLAGSPTQKVGY
soluble fraction (log2): -0.0716

HMEYREFEAMTIRAIATLPPTQGHVIMLSRFEGLDNKEIALRLNLSLQTVKNTLTQGLKELKNKMRKLP
soluble fraction (log2): -0.119

HMDIEELLSRSTDRLSRQTEIRRLLADAQGRPNISSLARRFKVARRTVIRDLQELIRRGEVPPEIYPK
soluble fraction (log2): -0.0624

HMAPVVELEDVTIVRGKATLLDRVNWVIDETDRWVIVGPNGAGKTTLLQVVSANLHPTSGKAMILDEVL
soluble fraction (log2): -0.366

HMEFDVELTSFEEAKKLKVIKEVKDVTGLSLGEAKDLVMGAPKAIKTGVSKEEAEAIKTQIEAAGAVVTI
soluble fraction (log2): -0.699

HMSVKSVSLRKISYKVRRGDSLYNIAKNFSLSINDITHWNSINKKSYLQPGQRLTLYINPRN
soluble fraction (log2): 0.193

HMKEHDTLALRLTAILRKLNDGEKLVPRELAEEFNVGIRTIQRDLTERLSFLDLEKTNGAYSLPTRNL
soluble fraction (log2): -0.36

HMPPSVAETLKRLRRHKSLSLEELAQMSGVSRSMLSQIERDATNPTVATLWRITAALGVSIDEVLGV
soluble fraction (log2): -0.893

HMGGSVYTVQKGDTLWSIAKEQLGSPLRYAEIYDLNKDVIEEAARGRGKKDSSNGHWLVVGTSLQIPEAT
soluble fraction (log2): -0.077

HMAFEDYAGEYRSAADFAESLHEDTGTEIPESLRYYIDWQALARDMALNGEIMVFQTGFDEVHIFWS
soluble fraction (log2): -0.878

HMNLSPADFSSVRNALGLSLSTVAKESGINRNYLSNFEKKKHFLEETAKVKLRDYYMSIDPDAFAAAL
soluble fraction (log2): -0.291

HMDLTIEQTTVLGKRLFSNALNSLGKKQRNIKKDAIESLLKRMNLKDMDQLYESIGIGDKSPLLMAQILL
soluble fraction (log2): 0.0239

HMKIEEVIEKLKTDSIISRKEYEDIVRQINPNLSDRTIFWQLAKLQDMGVLQKIGQNSFHVRN
soluble fraction (log2): 0.0251

HMFNFPEEVRVQLAKSEQLRNLLIPMSETVRDALSGEELWFGRTIFNTTSKKIESWTNPGVWVE
soluble fraction (log2): -1.28

HMDASSAVQFGSLLRDARRRQGLSQAELGGDKYSGSYISHLESGRRVATPEVIEFLSRRLGVSPLEWGVS
soluble fraction (log2): -0.026

HMKYFDRDLINYIQKTLAGKKIDFHEKIVPLIIELAGSDIRRVDEIIDMAEYSGKGMHVSEEMIRELAGDV
soluble fraction (log2): -1.72

HMSADIGAEKAKTIALNHAGVSASNAVFLHAKLDYDDGRRTYEVEFYSGSKEYDYEIDAATGEILSYDFD
soluble fraction (log2): 0.327

HMEGLESVVPDLRGKSLKSAAIAAGLSGFALSPEGSGIVYKQSPAPGGRYLKGTLIAVWLRT
soluble fraction (log2): 0.22

HMTDAELDLLTPREQEVLQLIARGYLYKEIARRLGISVKTVEAHASSVLRKLQLSTRHELSHWAAQRH
soluble fraction (log2): -0.192

HMDKEIKILKEKRLDDVQQAIRELSPQKRRVVEMKLYHNSTNQEVADKLAISVNTVKSLYTSALHDLRRIL
soluble fraction (log2): 0.109

HMGSWDDFFNAIRLDNPNTLQALLQRGFDPNTVDQQGTPALMRALQEQSYRAAEVLADHPQI
soluble fraction (log2): -0.584

HMAIDVQELARTRLRSLRTTLGYSLDELAARTHLSPSTISRLETGKRSLSLDVVVPLAQALHVSLDVLFEA
soluble fraction (log2): -0.666

HMAPIEVPYNVFRQQVVEGNVESVATRADTVQGYFETPVTLPARPDAAAAEPVTVERFSTTLPSF
soluble fraction (log2): 0.00217

HMARSKSRQSSVLESVPGLGPSRRRNLLRHFGGLQGVVKAGVEDLMAVRGISRTLAETVYDHLHPGS
soluble fraction (log2): 0.22

HMDTGKLQSLVGSRGVAHTVLRPSGKVMIGDDVYPAVAETGFIPRGTAIVVRREEQGQLYVVEARK
soluble fraction (log2): 0.275

HMLKLEPYTINEINSLQELYDLGNVRALETLISIYKDKNQVYDTRFYVLDILSKYDNPLIQEALEESITN
soluble fraction (log2): -1.89

HMRDSLVGLEGVVVREVDDETLAGKVQIGSMEWSARSESGRIPAGRRVVVLRAEGVHIVVKEV
soluble fraction (log2): -0.121

HMNIQGIFGRNLKQKRLEKGMTQEQLAEKAGVSTDTVKRYESGKYDGIRLDMAWYMANALDTPLQALLPP
soluble fraction (log2): 0.0744

HMEGSRASMDGQVPGKTSYLEWLARQPAQRQDQVLGAERGRLFRAGEIDLADMFTDKGEWISLERLKQLS
soluble fraction (log2): -0.284

HMRTQEELVAEVREQMEAMGTIATLYVELYESSEERLVGGVIFEDERHYRFVYEDGLLHYEEEK
soluble fraction (log2): -1

HMIQAGDLVFIWNPKKGDNFLIKVTPGMSQGTHFGQIKHTELMEREYGEGIVTPKGEVYYLLRPTLAGYTR
soluble fraction (log2): -1.3

HMEEKWKENYEKIKLFISINNRYPSVYSEDKEEGLIGSFMSNQKRRKNKLSKEKMALFEALPNWIWE
soluble fraction (log2): -0.812

HMNVDSLPGEKAVVIKTIDNLRGTGQAVVNGLEWSAKSKDETIIDEGKVVRIVAVEGVKLVVEEE
soluble fraction (log2): -0.252

HMDLVIALNSRIRVIREPFFGKLGTVIDLPHKLHKMESGTMTRVAKIKFDDRTEEIIPRTNLEVILS
soluble fraction (log2): -0.35

HMEISTENESFSNGLLEHPHYTRPPVWEDLKIPAVLMSGHHGKVAEWRKQQSEALTQERRPDLWEAFG
soluble fraction (log2): -0.0776

HMNLMQIHVARPPNQLGVFSQEEVAAGLQSGRFLPTDQAWRDGMSAWTPLSQWAEFSSVVAAV
soluble fraction (log2): -0.307

HMNFTKHPENPNFVVYRFTDPERANSFRAELIANNISFEEDTEKKKQLIYTLFAIHTKYYNQSMQINIK
soluble fraction (log2): -0.0767

HMKNELNSKLIISIKEALPPQIKVATYLMDLLSLGREAVYRRIRGDVSFDLEELSIISKALNISIDDVL
soluble fraction (log2): -2.53

HMSMDYYSTLGVSKTASASDIKKAYRKLAMANHPDKGGDSAKFAKITEAYDVLKDPQKRNNYDQFGTA
soluble fraction (log2): 0.399

HMEFEYTVVVPETRGKTIGEAGRILLDLELKYTSESMNIREDSKVIDQFPSPGTEVSKGSIIDLYLDE
soluble fraction (log2): -1.91

HMFHFELNAAKQALEDRKTIDRAKGILMRQRGMSEDDAYKLLRTTAMSQNRKVIDVAQALVTAADLL
soluble fraction (log2): 0.292

HMTKEEREKREKYEKLMKKAEELTAAKNHREVINVLGQAKAYATAAQLKEIEEKIKAATSEMNK
soluble fraction (log2): 0.257

HMKDHLRFEILSFAGDLRNGVVKTRQEFETIFAFYDKYEEIITALKVHNGYVDSEFDFIKEKFKELKSK
soluble fraction (log2): 0.194

HMSIELEISADGNNYRVSGLSDGEDVRVYSVSGVQVFSGKAQGGEVVIPADNWNKGIYVISAGGSSVKVL
soluble fraction (log2): -0.312

HMEVALEVPELRGLSMKQATNTLMASGFEVQKVGSGTIYAQFPLPGERLRTGYAVTIRGKTRDLG
soluble fraction (log2): 0.047

HMQMSDTAAIGKIVDEVFAENPAALEDYAKGKTNVVDWLTGQVMKKSRGQANPGIASELVQKRLADF
soluble fraction (log2): 0.101

HMDFEVGTVKWFNTKKGYGFITRDQGEDIFVHFRNIKGQGRRSLSDGERVSFVVTHGDKGLQADQVSP
soluble fraction (log2): -1.18

HMKQQTRAELLDEFAKAHAERGLYFNRDYEQGEIQALQPDKAREYLQSALEARTERQQASEQDR
soluble fraction (log2): 0.266

HMYDDLEPFDANGRLRWSDKELILAFGRHRGVTLQTLELNDPGYLRWLLSGNGPLEQQDRKRLEDILES
soluble fraction (log2): -1.36

HMNSEPKTKLQEIAQERGLAAPVYETTHTGPDHDRIFSASVTVGDVVAAGEARSRKGAESEAAIAAIKALG
soluble fraction (log2): 0.155

HMEVSTDADFEAVGIRAELIPILQKLGFTTVAQLKEVKATKLFNDIPGMRKKLKLDAVQNPTLQEIEGWLK
soluble fraction (log2): 0.0606

HMNEVIIKNWSNAVGRNIKIKTKRGRPIFGRLLAINDQQLTIASKYMRGNATITVAREDVVSMSVS
soluble fraction (log2): 0.22

HMLVKKYTEEETGRQAELSKQLAELSKAYYNTGNSMVDDAVFDKLRDELSSLEKESGFAYDISPNVS
soluble fraction (log2): -0.276

HMQETILFGQQKAINNLSSDTGLSENDLDSYLKKRYKKPLYQLTQSEGADIINGFQDGSLSKNSILDYIKP
soluble fraction (log2): 0.22

HMADPVTPQDLIRWSEALAGIARTGLGFTQSLYEQERFEEVLAVAADMRVAAGSSYNPDDLVHEWMKSVG
soluble fraction (log2): -0.34

HMVMSVGENIAYFRKKLGLTQEMLSERIGVTAQAVSKWENGVTNPDISLLPRISEALGIGIGDLFD
soluble fraction (log2): -0.218

HMSKNTFIGNIDDKELYVGSGRYGPFMLYDGKFTNITRYLSDESKELTDITIDDYSKIVNNARPK
soluble fraction (log2): -1.5

HMPYEHQRAVGALIRRLREQQGWSQRALADWVHMDQSAVSRVETGQRSVTAEELGRFADALHVSTDALVR
soluble fraction (log2): 0.059

HMGVPTEQQSLIGKSGIAATDLRPSGKVEIDGKRYDAVSNYAGFIAKGTPISVVRYETGQIYVE
soluble fraction (log2): 0.0721

HMHLTEAPLIKITYFEADQKKSGGQYITIINHLKKINEYENLLVLENGVKINIDDIYELESV
soluble fraction (log2): -0.804
